Data as given in patent publication US7807629 (ALCON RESEARCH, dated 2010).
Square brackets hold non-standard residues; d marks the D form. Ends that are not written are not given here. Hyp = O=C(O)[C@@H]1C[C@@H](O)CN1

Target: T1, human bradykinin B2 receptor (human, UniProt P30411 1-391)
T1 sequence (looked up): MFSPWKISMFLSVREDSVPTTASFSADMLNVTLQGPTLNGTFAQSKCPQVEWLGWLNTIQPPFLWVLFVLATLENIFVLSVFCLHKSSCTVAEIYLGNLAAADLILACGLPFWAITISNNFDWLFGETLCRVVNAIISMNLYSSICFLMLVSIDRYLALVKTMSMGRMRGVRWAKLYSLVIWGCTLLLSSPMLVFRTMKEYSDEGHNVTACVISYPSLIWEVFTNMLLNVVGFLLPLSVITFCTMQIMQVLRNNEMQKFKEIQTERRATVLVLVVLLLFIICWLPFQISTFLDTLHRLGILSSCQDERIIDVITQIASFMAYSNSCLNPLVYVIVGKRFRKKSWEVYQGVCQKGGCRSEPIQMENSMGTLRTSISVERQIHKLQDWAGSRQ
Test: cell-based or functional assay

Binder | [Ca^2+]i mobilization, Agonist Potency (EC50), h-NPE cells | [Ca^2+]i mobilization, Agonist Potency (EC50), h-TM cells | [Ca^2+]i mobilization, Agonist Potency (EC50), h-CM cells
RP[Hyp]GFSPFR [Hyp^3-BK] | 6 nM | 0.9 nM | 
MKRPPGFSPFR [Met-Lys-BK] | 125 nM | 6.5 nM | 16.1 nM
KRPPGFSPFR [Lys-BK] | 19.6 nM | 1.9 nM | 3.2 nM
